How the values were obtained:
[1] = Preparation of single peptide injection preparations using sodium carbonate solution (Example 1); type: physicochemical; settings: for Whether injection preparation could be prepared (in words): 5 mg to 20 mg peptide in 1 ml injection solvent containing sodium carbonate; for Peptide concentration at which injection preparation could be prepared, Example 1 (Na2CO3): 41 mg sodium carbonate decahydrate in 1 ml injection solvent; for pH of injection preparation, Example 1 (Na2CO3): injection solvent containing sodium carbonate
Method: (§1) 41 mg of sodium carbonate decahydrate (Na2CO3.10H2O) was dissolved in 1 ml of an injection solvent to obtain an injection solvent containing sodium carbonate. In order to prepare formulations of the each peptide that was not dissolved in an injection solvent in Comparative Example 1, Peptides 1, 2, 4, 7, and 10 were separately added to 1 ml of injection solvents containing sodium carbonate.
In the case of Peptide 1, it was confirmed that the injection preparation could be obtained with the addition of 9 mg of peptide at the maximum. All the obtained injection preparations had pH levels within adequate range for injection (Table 2).

[2] = Preparation of single peptide injection preparations using arginine solution (Example 2); type: physicochemical; settings: for Whether injection preparation could be prepared (in words): 5 mg to 20 mg peptide in 1 ml injection solvent containing arginine; for Peptide concentration at which injection preparation could be prepared, Example 2 (Arg): 40 mg L-arginine in 1 ml injection solvent; for pH of injection preparation, Example 2 (Arg): injection solvent containing arginine
Method: as §1, with “40” for “41”, “L-arginine” for “sodium carbonate decahydrate (Na2CO3.10H2O)”, “arginine.” for “sodium carbonate.”, “of” for “of the”
In the case of Peptide 1, it was confirmed that the injection preparation could be obtained with the addition of 6 mg of peptide at the maximum. All the obtained injection preparations had pH levels within adequate range for injection (Table 2).

[3] = Preparation of injection preparations using sodium carbonate/arginine solution (Example 3); type: physicochemical; settings: for Peptide concentration at which injection preparation could be prepared, Example 3 (Na2CO3/Arg): 41 mg sodium carbonate decahydrate and 40 mg L-arginine in 1 ml injection solvent; for pH of injection preparation, Example 3 (Na2CO3/Arg): injection solvent containing sodium carbonate and arginine
Method: 41 mg of sodium carbonate decahydrate and 40 mg of L-arginine were dissolved in 1 ml of an injection solvent to obtain an injection solvent containing sodium carbonate and arginine.
In the case of Peptide 3, it was confirmed that the injection preparation could be obtained with the addition of 15 mg of peptide at the maximum. All the obtained injection preparations had pH levels within adequate range for injection (Table 2).

[4] = Combination peptide injection preparation using arginine solution (Example 4); type: physicochemical; parameters: key to Dissolution on successive addition, Example 4-1 (Arg) (1 mg each) / Dissolution on successive addition, Example 4-2 (Arg) (2 mg each): ◯: Dissolved; X: White Turbid; settings: for Dissolution on successive addition, Example 4-1 (Arg) (1 mg each): 1 mg each peptide added one after another to 1 ml arginine solvent; for Dissolution on successive addition, Example 4-2 (Arg) (2 mg each): 2 mg each peptide added one after another to 1 ml arginine solvent
Method: In order to prepare an injection preparation containing combination of the peptides shown in Table 1, the 10 types of peptides shown in Table 1 were added in an amount of 1 mg each to 1 ml of the injection solvent containing arginine as used in Example 2. The entire amount of one peptide was dissolved upon addition thereof to obtain a colorless and clear solution, and another peptide was then added thereto.
Subsequently, preparation of another injection preparation containing combination of the peptides was attempted in the same manner as described above, except that the amount of each peptide added was changed to 2 mg. […] Thus, no other peptides were added thereafter.

[5] = Combination peptide injection preparation using sodium carbonate solution (Example 5); type: physicochemical; parameters: key to Dissolution on successive addition, Example 5 (Na2CO3) (2 mg each) / Dissolution of further 2 mg of Peptide 2, Example 5 (Na2CO3): ◯: Dissolved; X: White Turbid; settings: for Dissolution on successive addition, Example 5 (Na2CO3) (2 mg each): 2 mg each peptide added one after another to 1 ml sodium carbonate solvent
Method: (§2) In order to prepare an injection preparation containing combination of the peptides shown in Table 1, the 10 types of peptides shown in Table 1 were added in an amount of 2 mg each to 1 ml of the injection solvent containing sodium carbonate as used in Example 1. The addition of each peptide was conducted in the same manner as in Example 4.

[6] = Combination peptide injection preparation using sodium carbonate/arginine solution (Example 6); type: physicochemical; parameters: key to Dissolution on successive addition, Example 6 (Na2CO3/Arg) (2 mg each) / Dissolution of further 2 mg of Peptide 2, Example 6 (Na2CO3/Arg): ◯: Dissolved; X: White Turbid; settings: for Dissolution on successive addition, Example 6 (Na2CO3/Arg) (2 mg each): 2 mg each peptide added one after another to 1 ml sodium carbonate/arginine solvent
Method: as §2, with “carbonate and arginine” for “carbonate”, “3.” for “1.”

[7] = Stability of lyophilized formulation, peptide content in the vial by HPLC (Example 7); type: physicochemical; settings: 25 degrees C., humidity 60%, relative to comparative solution peak area = 100%
Method: 107.7 g of L-arginine and 110.4 g of sodium carbonate hydrate were dissolved in 5,500 ml of an injection solvent. Peptide 1, Peptide 2, Peptide 3, and Peptide 4 were dissolved therein in amounts of 6.2 g, 7.5 g, 8.7 g, and 8.0 g, respectively. Thereafter, the total amount of the solution was adjusted to 7,000 ml with the addition of an injection solvent, and a combination peptide solution was obtained. […] Following lyophilization, the vial was fully stoppered and the aluminum cap seaming was conducted. Thus, a lyophilized formulation was produced.
Further, the results shown above were subjected to regression analysis, so as to predict stability 24 months later.

[8] = Preparation of single peptide injection preparations using injection solvent (Comparative Example 1); settings: for Whether injection preparation could be prepared (in words): 2 mg to 20 mg peptide in 1 ml injection solvent; for Peptide concentration at which injection preparation could be prepared, Comparative Example 1 (injection solvent): injection solvent (water), room temperature, class symbol
Method: Pharmaceutical water defined by the Japanese Pharmacopoeia was used as an injection solvent.
In order to prepare formulations containing one of the peptides shown in Table 1, each of the peptides shown in Table 1 were added to 1 ml of an injection solvent. The resultants were agitated at room temperature so as to dissolve the entire amounts of the peptides added, and thereby colorless and clear solutions of each peptide were obtained. Thereafter, the peptide solutions were sterilized via filtration (with the use of a 0.22-μm filter) to obtain injection preparations.
The amounts of peptides added varied within the range of 2 mg to 20 mg, and injection preparations were prepared at each concentration. […] For these peptides, peptide concentrations that enable preparation of injection preparations were investigated.

[9] = further 2 mg added after all 10 peptides (2 mg each) had dissolved

Row | Sequence | Whether injection preparation could be prepared (in words) [1] | Peptide concentration at which injection preparation could be prepared, Example 1 (Na2CO3) ([1]; class symbol) | pH of injection preparation, Example 1 (Na2CO3) [1] | Whether injection preparation could be prepared (in words) [2] | Peptide concentration at which injection preparation could be prepared, Example 2 (Arg) ([2]; class symbol) | pH of injection preparation, Example 2 (Arg) [2] | Peptide concentration at which injection preparation could be prepared, Example 3 (Na2CO3/Arg) ([3]; class symbol) | pH of injection preparation, Example 3 (Na2CO3/Arg) [3] | Dissolution on successive addition, Example 4-1 (Arg) (1 mg each) [4] | Dissolution on successive addition, Example 4-2 (Arg) (2 mg each) [4] | Dissolution on successive addition, Example 5 (Na2CO3) (2 mg each) [5] | Dissolution on successive addition, Example 6 (Na2CO3/Arg) (2 mg each) [6] | Peptide content in the vial, 0 months [7] | Peptide content in the vial, 1 month [7] | Peptide content in the vial, 3 months [7] | Peptide content in the vial, 6 months [7] | Whether injection preparation could be prepared (in words) [8] | Peptide concentration at which injection preparation could be prepared, Comparative Example 1 (injection solvent) [8] | further results
1 | EYYELFVNI (T cell epitope) [Peptide 2] | possible to prepare the injection preparations regardless of the amounts of peptides added | ⊚ (20 mg/ml or more) | 8.90 | possible to prepare the injection preparations regardless of the amounts of peptides added | ⊚ (20 mg/ml or more) | 9.03 | ⊚ (20 mg/ml or more) | 9.67 | ◯ | ◯ | ◯ | ◯ | 101.8% | 99.5% | 101.3% | 101.4% | not possible to prepare the injection preparations regardless of the amounts of peptides added | X (0.08 mg/ml or less) | Dissolution of further 2 mg of Peptide 2, Example 5 (Na2CO3) [5, 9]: X; Dissolution of further 2 mg (in words), Example 5 ([5]; further 2 mg after all 10 peptides (2 mg each), sodium carbonate solvent): white turbidity; Dissolution of further 2 mg of Peptide 2, Example 6 (Na2CO3/Arg) [6, 9]: ◯; Dissolution of further 2 mg (in words), Example 6 ([6]; further 2 mg after all 10 peptides (2 mg each), sodium carbonate/arginine solvent): colorless and clear solution was obtained
2 | IYTWIEDHF (T cell epitope) [Peptide 4] | possible to prepare the injection preparations regardless of the amounts of peptides added | ⊚ (20 mg/ml or more) | 8.88 | possible to prepare the injection preparations regardless of the amounts of peptides added | ⊚ (20 mg/ml or more) | 8.95 | ⊚ (20 mg/ml or more) | 9.69 | ◯ | – | ◯ | ◯ | 101.2% | 99.6% | 99.4% | 99.5% | not possible to prepare the injection preparations regardless of the amounts of peptides added | X (0.08 mg/ml or less) | –
3 | SYGVLLWEI (T cell epitope) [Peptide 1] | – | – | (9.85) | – | – | (10.17) | – | (10.41) | ◯ | ◯ | ◯ | ◯ | 101.0% | 98.7% | 98.9% | 98.6% | not possible to prepare the injection preparations regardless of the amounts of peptides added | X (0.08 mg/ml or less) | Peptide concentration at which injection preparation could be prepared, Example 1 (Na2CO3) ([1]; numeric): 9 mg/mL; Maximum amount of peptide added that gave an injection preparation ([1]; in 1 ml injection solvent containing sodium carbonate): 9 mg; Peptide concentration at which injection preparation could be prepared, Example 2 (Arg) ([2]; numeric): 6 mg/mL; Maximum amount of peptide added that gave an injection preparation ([2]; in 1 ml injection solvent containing arginine): 6 mg; Peptide concentration at which injection preparation could be prepared, Example 3 (Na2CO3/Arg) ([3]; numeric): 10 mg/mL

— US20150359864A1, “PHARMACEUTICAL COMPOSITION CONTAINING PEPTIDES” (ONCOTHERAPY SCIENCE, INC., priority 2012, published 2015)
